From publication PMC10388152 (PNAS Nexus, 2023)

Molecular target: the molecule itself
Test: dynamic light scattering

B1: C-terminal truncated ScBfr (ScBfr 1-152: residues 153-167 removed) (domain or fragment, Streptomyces coelicolor, UniProt Q9S2N0 1-152, looked up)
chain: MQGDPEVIEFLNEQLTAELTAINQYFLHAKLQDHKGWTKLAKYTRAESFDEMRHAEVLTDRILLLDGLPNYQRLFHVRVGQSVTEMFQADREVELEAIDRLRRGIEVMRAKHDITSANVFEAILADEEHHIDYLETQLDLIEKLGESLYLST
  stoichiometry N: 24
